Source: the MegaScale stability set (Tsuboyama et al. 2023)

B1: EEHEE_rd3_1049 (parent)
chain: TTVKLGDIKVTFDNPEKAKKYAQKLAKIYQLTVHVHGDTIHVK

Variants of: B1
Assay: folding stability dG (cDNA display proteolysis); higher = more stable
Settings: PBS, room temperature

Folding stability dG [kcal/mol]: each site, then its substitutions
V33: K -0.112 | S 0.464 | E 0.147 | M 1.78 | G 0.145 | L 2.1 | D -0.143 | Y 1.54 | H 0.305 | T 1.11 | A 0.869 | N -0.39 | F 1.6 | P 0.242 | W 1.85 | Q 0.334 | R -0.171 | I 2.37 | C 2.12
L31: E 0.002 | K 0.541 | A 1.56 | Q 0.409 | R 0.613 | M 2.18 | S 0.893 | Y 1.31 | F 1.49 | H 0.811 | T 1.06 | D -0.096 | G 1.66 | I 1.05 | N 0.271 | W 1.26 | V 1.08 | P -0.519
Y29: T 0.658 | F 2.11 | A 0.547 | N 0.582 | V 0.558 | I 0.716 | R 0.806 | S 0.482 | P 0.516 | D -0.065 | W 1.67 | K 0.669 | L 1.87 | Q 0.374 | H 1.31 | E 0.087 | M 1.26 | G 0.581
H34: L 2.06 | G 0.853 | N 1.34 | R 1.64 | E 2.46 | K 1.71 | Q 2.11 | W 2.15 | D 1.58 | M 2.08 | Y 2.39 | P -0.084 | A 1.9 | C 3.12 | F 2.39 | I 2.44 | V 2.59 | S 2.03 | T 2.12
V35: N 1.09 | Q 1.78 | I 2.26 | G 0.496 | F 2.08 | E 1.56 | R 1.27 | S 1.17 | T 1.5 | A 1.34 | K 1.24 | Y 2.14 | H 1.57 | P 0.957 | W 1.99 | C 2.12 | D 1.57 | L 1.7
T32: L 1.6 | F 1.81 | D 1.33 | I 2.01 | C 2.77 | W 1.48 | A 1.79 | R 1.4 | P 0.612 | N 1.43 | E 1.82 | M 1.75 | S 1.94 | V 2.21 | Q 1.87 | Y 1.69 | H 1.6 | K 1.63 | G 1.32
I28: R 2.4 | M 2.36 | W 2.15 | E 1.47 | S 1.05 | N 1.01 | P -0.832 | Y 2.14 | H 1.64 | V 1.56 | K 2.48 | D 1.08 | F 2.02 | C 2.92 | T 1.48 | Q 1.88 | L 2.33 | G 0.349
Q30: Y 1.65 | S 2.06 | F 1.87 | M 1.92 | A 1.89 | T 1.34 | N 2.58 | D 2.08 | W 1.71 | H 2.42 | V 1.24 | P 0.614 | L 1.48 | R 1.98 | I 1.28 | G 3.23 | K 2.2 | E 1.62
G37: A 1.28
H36: E 2.66 | Y 2.19 | G 1.16 | Q 2.34 | K 1.96 | F 2.17 | P 0.039 | W 1.99 | R 1.96 | V 2.61 | I 2.73 | D 2.58 | L 2.34 | M 2.46 | A 2.12 | C 3.31 | N 2.04 | S 2.19 | T 2.07
